Measurements as given in patent US20250281533A1 (LG CHEM, published 2025).

B1: scFv 2447_3B07 (scFv)
scFv: QVQLVESGGVVVQPGGSLRLSCAASGFTFDDYAMHWVRQAPGRGLEWVSLTSWDGGSTYYADSVKGRFTISRDNSKNSLYLQMNSLRAEDTALYYCAKDHSSGWYNGGMDVWGQGTMVTVSSGGGGSGGGGSGGGASSYELTQDPAVSVALGQTVRITCQGDSLRSYYASWYQQKPGQAPVLVIYGKNNRPSGIPDRFSGSSSGNTASLTITGAQAEDEADYYCNSRDSSGNHVVFGGGTKLTVL
B2: scFv 2447_3H02 (scFv)
scFv: EVQLLESGGGLVQPGRSLRLSCAASGFTFDDYAMHWVRQAPGKGLEWVSGISWDSGSIGYADSVKGRFTISRDNAKNSLYLQMNSLRAEDTALYYCAKDVSSGWYWYAFDIWGQGTLVTVSSGGGGSGGGGSGGGASSYELTQDPAVSVALGQTVRITCQGDILRSYYASWYQQKPGQAPVLVIYGKNNRPSGIPDRFSGSSSGNTASLTITGAQAEDEADYYCNSRDSSGNRVVFGGGTKLTVL
notes: also called #9
B3: scFv 2447_3A01 (scFv)
scFv: EVQLLESGGGLVQPGGSLRLSCAASGFTFDDYAMHWVRQAPGKGLEWVSGISWNSGSIVYADFVKGRFTISRDNAKNSLYLQMNSLRAEDTALYYCAKDISSGWYPGTFDYWGQGTLVTVSSGGGGSGGGGSGGGASSYELTQDPAVSVALGQTVRITCQGDSLRSYYASWYQQKPGQAPVLVIYGKNNRPSGIPDRFSGSSSGNTASLTVTGAQAEDEADYYCSSRDSSDDVVFGGGTQLTVL
B4: scFv 2447_3A09 (scFv)
scFv: EVQLLESGGGLVQPGRSLRLSCAATGFTFDDYAMHWVRQAPGKGLEWVSGISWNSGSIGYADSVKGRFTISRDNAKNSLYLQMNSLRAEDTASYYCAKDVSSGWYWYAFDIWGQGTLVTVSSGGGGSGGGGSGGGASSYELTQDPAVSVALGQTVRITCQGDSLRSYYASWYQQKPGQAPVLVIYGKNNRPSGIPGRFSGSSSGNTASLTVTGAQAEDEADYYCNSRDSGGSVVFGGGTKLTVL
notes: also called #5
B5: scFv 2447_3A12 (scFv)
scFv: EVQLVQSGAEVKKPGASVKVSCKASGYTFTSYGISWVRQAPGQGLEWMGWISAYNGNTNYAQKLRGRVTMTTDTSTSTAYMELRSLRSDDTAVYYCARDPHILTGYYRGGWFDPWGQGTLVTVSSGGGGSGGGGSGGGASSYELTQDPAVSVVLGQTVRITCQGDSLRSYYASWYQQKPGQAPVLVIYGKNNRPSGIPDRFSGSSSGNTASLTITGAQAEDEADYYCNSRDSSGNHRVFGGGTKLTVL
notes: also called #6
B6: scFv 2447_2H08 (scFv)
scFv: EVQLVQSGAEVKKPGASVKVSCKASGYTFTNYGISWVRQAPGQGLEWMGWISAYNGNTNYAQKLQGRVTMTTDTSTSTAYMELRSLRSDDTAVYYCARDPHILTGYYRGGWFDPWGQGTTVTVSSGGGGSGGGGSGGGASSYELTQDPAVSVALGQTVTITCQGDSLRTSYAGWLQQKPGQAPVLVLYGKTSRPSGIPDRFSGSTSGNTASLTITGAQAEDEAEYFCHSRDSNDNYLEVVFGGGTKLTVL
B7: scFv 2447_3H08 (scFv)
scFv: EVQLLESGGGLVQPGRSLRLSCAASGFTFDDYAMHWVRQAPGKGLEWVSGISWNSGSIDYADSVKGRFTISRDNSKNTLYLQMNSLRAEDTAVYYCARDRSSGWYTGSFDYWGQGTLVTVSSGGGGSGGGGSGGGASSYELTQDPAVSVALGQTVRITCQGDSLRSYYASWYRQKPGQAPVLVIYGKNNRPSGIPDRFSGSSSGNTASLTIIGAQAEDEADYYCQSRDSSDNRVLFGGGTKVTVL
notes: also called #10
B8: scFv 2447_3C08 (scFv)
scFv: EVQLLESGGGLVQPGGSLRLSCAASGFTFDDYAMHWVRQAPGKGLEWVSGISWNSGSIGYADSVKGRFTISRDNAKNSLYLQMNSLRAEDTALYYCAKDRGSGYEGNYYGMDVWGQGTLVTVSSGGGGSGGGGSGGGASSYELTQDPAVSVALGQTVRITCQGDSLRSYYASWYQQKPGQAPVLVIYGKNNRPSGIPDRFSGTTSGNTASLTITGAQAEDEADYYCNSRDSSGNHYVFGTGTKVTVL
B9: scFv 2447_3A08 (scFv)
scFv: EVQLVQSGAEVKKPGASVKVSCKASGYTFTSYGISWVRQAPGQGLEWMGWISAYNGNTNYAQKLQGRVTMTTDTSTSTAYMELRSLRSDDTAVYYCARDRATIFGVVTPFDYWGQGTLVTVSSGGGGSGGGGSGGGASSYELTQDPAVSVALGQTVRITCQGDSIRSYSASWYQQKPGQAPRLVIYGKNNRPSGIPDRVSGSTSGNTASLTVTGAQAEDEADYYCNSRDSSGNRVVFGGGTQLTVL
B10: positive control scFv G03 (scFv)
scFv: EVQLVQSGAEVKKPGATVKISCKVSGYTFTSYWMHWVQQAPGKGLEWIGYINPGTGYIEYNQKFKDRVTITADKSTDTAYMELSSLRSEDTAVYYCASSTAPFDYWGQGTLVTVSSGGGGSGGGGSGGGASEIVLTQSPGTLSLSPGERATLSCKASQDIKSYLSWYQQKPGQAPRLLIYYATRLADGIPDRFSGSGSGTDFTLTISRLEPEDFAVYYCLQYDESPYTFGQGTKLEIK

The binders below were run against T1, mucin1 (MUC1) naturally expressed on human breast cancer cell lines (human, UniProt P15941 24-1255) (assay: flow cytometry (PE MFI, corrected to G03 at 380 ug/mL) on T47D cells).
T1 construct: whole, on cells; The cell line of each entry is named under assay or readout; also called MUC1 on T47D cells; MUC1 on HCC70 cells
T1 sequence (P15941 24-1255): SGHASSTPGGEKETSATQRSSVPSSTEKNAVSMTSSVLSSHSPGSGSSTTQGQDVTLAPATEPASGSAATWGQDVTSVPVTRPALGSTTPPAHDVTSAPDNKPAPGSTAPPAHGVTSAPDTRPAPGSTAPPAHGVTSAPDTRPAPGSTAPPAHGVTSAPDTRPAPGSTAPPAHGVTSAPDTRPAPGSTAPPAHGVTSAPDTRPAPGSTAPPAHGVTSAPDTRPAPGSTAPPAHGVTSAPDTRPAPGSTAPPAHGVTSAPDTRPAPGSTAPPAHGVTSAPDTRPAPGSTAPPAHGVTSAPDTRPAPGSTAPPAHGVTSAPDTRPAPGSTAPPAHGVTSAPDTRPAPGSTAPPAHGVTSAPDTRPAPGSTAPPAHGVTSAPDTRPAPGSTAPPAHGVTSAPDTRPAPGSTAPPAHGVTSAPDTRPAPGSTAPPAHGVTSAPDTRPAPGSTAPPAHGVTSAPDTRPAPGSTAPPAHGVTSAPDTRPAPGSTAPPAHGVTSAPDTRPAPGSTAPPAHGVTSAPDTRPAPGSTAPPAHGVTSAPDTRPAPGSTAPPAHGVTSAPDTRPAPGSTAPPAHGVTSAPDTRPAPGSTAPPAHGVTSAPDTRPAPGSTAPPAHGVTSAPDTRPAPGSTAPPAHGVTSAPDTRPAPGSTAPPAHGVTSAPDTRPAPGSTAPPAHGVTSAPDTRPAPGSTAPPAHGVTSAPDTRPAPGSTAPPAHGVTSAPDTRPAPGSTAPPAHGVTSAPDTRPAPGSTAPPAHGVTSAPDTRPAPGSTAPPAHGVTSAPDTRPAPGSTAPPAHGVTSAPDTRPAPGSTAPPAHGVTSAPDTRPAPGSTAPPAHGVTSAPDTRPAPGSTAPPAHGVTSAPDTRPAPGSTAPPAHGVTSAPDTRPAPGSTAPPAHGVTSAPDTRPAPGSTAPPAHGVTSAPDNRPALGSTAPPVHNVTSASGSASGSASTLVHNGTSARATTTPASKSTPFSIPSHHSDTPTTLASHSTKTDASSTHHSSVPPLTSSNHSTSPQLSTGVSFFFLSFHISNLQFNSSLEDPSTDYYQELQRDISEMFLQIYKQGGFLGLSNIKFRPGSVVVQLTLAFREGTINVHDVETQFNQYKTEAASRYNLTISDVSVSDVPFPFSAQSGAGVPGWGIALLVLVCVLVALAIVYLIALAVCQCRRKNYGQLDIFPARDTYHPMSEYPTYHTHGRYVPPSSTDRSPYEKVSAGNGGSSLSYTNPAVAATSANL
For B1, the EC50 was 3.47 µg/mL. B2 gave an EC50 of 1.6 µg/mL. B3 gave an EC50 of 11.1 µg/mL. Binder B4 has an EC50 of 2.2 µg/mL. With B5 the EC50 was 0.75 µg/mL. Binder B6 has an EC50 of 130 µg/mL. For B7, the EC50 was 5.6 µg/mL. Binder B8 has an EC50 of 2.04 µg/mL. Work on B9 yielded an EC50 of 3.76 µg/mL. B10 was tested, and the EC50 was 3.56 µg/mL.
